B1: Zinc finger protein ZXDC (Homo sapiens), Q2QGD7 (parent)
chain: MDLPALLPAPTARGGQHGGGPGPLRRAPAPLGASPARRRLLLVRGPEDGGPGARPGEASGPSPPPAEDDSDGDSFLVLLEVPHGGAAAEAAGSQEAEPGSRVNLASRPEQGPSGPAAPPGPGVAPAGAVTISSQDLLVRLDRGVLALSAPPGPATAGAAAPRRAPQASGPSTPGYRCPEPQCALAFAKKHQLKVHLLTHGGGQGRRPFKCPLEGCGWAFTTSYKLKRHLQSHDKLRPFGCPVGGCGKKFTTVYNLKAHMKGHEQESLFKCEVCAERFPTHAKLSSHQRSHFEPERPYKCDFPGCEKTFITVSALFSHNRAHFREQELFSCSFPGCSKQYDKACRLKIHLRSHTGERPFICDSDSCGWTFTSMSKLLRHRRKHDDDRRFTCPVEGCGKSFTRAEHLKGHSITHLGTKPFECPVEGCCARFSARSSLYIHSKKHVQDVGAPKSRCPVSTCNRLFTSKHSMKAHMVRQHSRRQDLLPQLEAPSSLTPSSELSSPGQSELTNMDLAALFSDTPANASGSAGGSDEALNSGILTIDVTSVSSSLGGNLPANNSSLGPMEPLVLVAHSDIPPSLDSPLVLGTAATVLQQGSFSVDDVQTVSAGALGCLVALPMKNLSDDPLALTSNSNLAAHITTPTSSSTPRENASVPELLAPIKVEPDSPSRPGAVGQQEGSHGLPQSTLPSPAEQHGAQDTELSAGTGNFYLESGGSARTDYRAIQLAKEKKQRGAGSNAGASQSTQRKIKEGKMSPPHFHASQNSWLCGSLVVPSGGRPGPAPAAGVQCGAQGVQVQLVQDDPSGEGVLPSARGPATFLPFLTVDLPVYVLQEVLPSSGGPAGPEATQFPGSTINLQDLQ
partner: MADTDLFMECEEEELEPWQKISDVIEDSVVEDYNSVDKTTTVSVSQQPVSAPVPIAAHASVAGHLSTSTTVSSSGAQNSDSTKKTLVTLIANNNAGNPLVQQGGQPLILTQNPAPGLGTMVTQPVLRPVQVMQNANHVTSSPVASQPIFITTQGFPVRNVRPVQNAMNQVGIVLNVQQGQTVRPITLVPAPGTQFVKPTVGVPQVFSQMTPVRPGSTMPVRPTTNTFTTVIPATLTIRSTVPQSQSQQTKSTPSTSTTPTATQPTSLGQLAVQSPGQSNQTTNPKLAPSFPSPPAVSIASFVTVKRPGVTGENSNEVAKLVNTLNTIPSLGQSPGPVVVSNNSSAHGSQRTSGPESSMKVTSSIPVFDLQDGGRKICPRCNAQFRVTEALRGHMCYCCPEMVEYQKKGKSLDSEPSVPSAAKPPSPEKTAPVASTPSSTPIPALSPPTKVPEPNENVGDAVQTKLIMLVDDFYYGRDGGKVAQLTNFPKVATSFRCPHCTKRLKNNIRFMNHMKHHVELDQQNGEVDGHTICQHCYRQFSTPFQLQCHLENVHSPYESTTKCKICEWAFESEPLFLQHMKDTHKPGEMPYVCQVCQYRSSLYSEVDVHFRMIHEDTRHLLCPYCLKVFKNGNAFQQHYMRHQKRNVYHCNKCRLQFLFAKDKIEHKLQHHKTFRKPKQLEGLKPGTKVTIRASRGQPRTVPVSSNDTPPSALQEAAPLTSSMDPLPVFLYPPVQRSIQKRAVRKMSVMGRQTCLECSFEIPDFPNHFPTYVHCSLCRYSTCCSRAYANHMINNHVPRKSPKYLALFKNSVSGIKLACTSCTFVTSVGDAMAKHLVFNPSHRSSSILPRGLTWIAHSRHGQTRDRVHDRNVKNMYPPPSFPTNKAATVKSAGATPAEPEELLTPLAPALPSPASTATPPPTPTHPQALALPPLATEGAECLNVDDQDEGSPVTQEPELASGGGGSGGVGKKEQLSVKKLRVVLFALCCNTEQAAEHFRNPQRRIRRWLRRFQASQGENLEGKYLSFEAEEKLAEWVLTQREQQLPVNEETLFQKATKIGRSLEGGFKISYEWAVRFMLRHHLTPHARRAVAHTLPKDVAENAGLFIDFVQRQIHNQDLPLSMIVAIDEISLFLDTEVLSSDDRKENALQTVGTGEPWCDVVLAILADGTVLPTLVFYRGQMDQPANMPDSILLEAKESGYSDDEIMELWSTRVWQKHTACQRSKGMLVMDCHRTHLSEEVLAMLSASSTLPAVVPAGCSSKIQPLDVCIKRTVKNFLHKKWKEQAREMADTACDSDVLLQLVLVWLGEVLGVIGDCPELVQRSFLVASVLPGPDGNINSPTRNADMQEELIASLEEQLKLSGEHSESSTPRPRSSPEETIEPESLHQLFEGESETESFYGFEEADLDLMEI
B2: Cilium assembly protein DZIP1L (Homo sapiens), Q8IYY4 (parent)
chain: MQSPAATAEGLSGPLFGAYTFPTFKFQPRHDSMDWRRISTLDVDRVARELDVATLQENIAGITFCNLDREVCSRCGQPVDPALLKVLRLAQLIIEYLLHCQDCLSASVAQLEARLQTSLGQQQRGQQELGRQADELKGVREESRRRRKMISTLQQLLMQTGTHSYHTCHLCDKTFMNATFLRGHIQRRHAGVAEGGKQKKQEQPVEEVLEELRAKLKWTQGELEAQREAERQRQLQEAELIHQREIEAKKEFDKWKEQEWTKLYGEIDKLKKLFWDEFKNVAKQNSTLEEKLRALQSHSVMESKLGSLRDEESEEWLRQARELQALREKTEIQKTEWKRKVKELHEEHMAEKKELQEENQRLQASLSQDQKKAAAQSQCQISTLRAQLQEQARIIASQEEMIQSLSLRKVEGIHKVPKAVDTEEDSPEEEMEDSQDEQHKVLAALRRNPTLLKHFRPILEDTLEEKLESMGIRKDAKGISIQTLRHLESLLRVQREQKARKFSEFLSLRGKLVKEVTSRAKERQENGAVVSQPDGQPSVKSQQSTLVTREAQPKTRTLQVALPSTPAEPPPPTRQSHGSHGSSLTQVSAPAPRPGLHGPSSTPPSSGPGMSTPPFSSEEDSEGDRVQRVSLQPPKVPSRMVPRPKDDWDWSDTETSEENAQPPGQGSGTLVQSMVKNLEKQLEAPAKKPAGGVSLFFMPNAGPQRAATPGRKPQLSEDESDLEISSLEDLPLDLDQREKPKPLSRSKLPEKFGTGPQSSGQPRVPAW
B3: Muscleblind-like protein 1 (Homo sapiens), Q9NR56 (parent)
chain: MAVSVTPIRDTKWLTLEVCREFQRGTCSRPDTECKFAHPSKSCQVENGRVIACFDSLKGRCSRENCKYLHPPPHLKTQLEINGRNNLIQQKNMAMLAQQMQLANAMMPGAPLQPVPMFSVAPSLATNASAAAFNPYLGPVSPSLVPAEILPTAPMLVTGNPGVPVPAAAAAAAQKLMRTDRLEVCREYQRGNCNRGENDCRFAHPADSTMIDTNDNTVTVCMDYIKGRCSREKCKYFHPPAHLQAKIKAAQYQVNQAAAAQAAATAAAMTQSAVKSLKRPLEATFDLGIPQAVLPPLPKRPALEKTNGATAVFNTGIFQYQQALANMQLQQHTAFLPPVPMVHGATPATVSAATTSATSVPFAATATANQIPIISAEHLTSHKYVTQM
partner: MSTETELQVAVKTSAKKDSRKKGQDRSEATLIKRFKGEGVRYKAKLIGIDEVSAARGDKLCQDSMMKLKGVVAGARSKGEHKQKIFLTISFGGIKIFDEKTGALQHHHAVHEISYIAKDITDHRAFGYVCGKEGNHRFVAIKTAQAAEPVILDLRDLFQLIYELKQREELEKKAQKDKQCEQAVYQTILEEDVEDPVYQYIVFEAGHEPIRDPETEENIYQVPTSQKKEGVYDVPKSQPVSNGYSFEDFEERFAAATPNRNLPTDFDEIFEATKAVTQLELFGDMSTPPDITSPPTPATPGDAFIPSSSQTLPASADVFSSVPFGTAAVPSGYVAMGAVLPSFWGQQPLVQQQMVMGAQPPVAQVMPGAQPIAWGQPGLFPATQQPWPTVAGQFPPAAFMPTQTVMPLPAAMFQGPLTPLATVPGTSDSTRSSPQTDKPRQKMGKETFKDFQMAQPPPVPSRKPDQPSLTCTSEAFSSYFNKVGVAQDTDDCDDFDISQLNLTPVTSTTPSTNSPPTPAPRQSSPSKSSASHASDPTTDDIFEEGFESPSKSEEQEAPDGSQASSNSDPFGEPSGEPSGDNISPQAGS

Variants of: B1
Details: with pogz_human POGZ

Variant | effect of a mutation on the interaction
T589M | with no effect

Variants of: B2
Details: with cep76_human CEP76, Q8TAP6
cep76_human CEP76, Q8TAP6, sequence (Q8TAP6 whole entry): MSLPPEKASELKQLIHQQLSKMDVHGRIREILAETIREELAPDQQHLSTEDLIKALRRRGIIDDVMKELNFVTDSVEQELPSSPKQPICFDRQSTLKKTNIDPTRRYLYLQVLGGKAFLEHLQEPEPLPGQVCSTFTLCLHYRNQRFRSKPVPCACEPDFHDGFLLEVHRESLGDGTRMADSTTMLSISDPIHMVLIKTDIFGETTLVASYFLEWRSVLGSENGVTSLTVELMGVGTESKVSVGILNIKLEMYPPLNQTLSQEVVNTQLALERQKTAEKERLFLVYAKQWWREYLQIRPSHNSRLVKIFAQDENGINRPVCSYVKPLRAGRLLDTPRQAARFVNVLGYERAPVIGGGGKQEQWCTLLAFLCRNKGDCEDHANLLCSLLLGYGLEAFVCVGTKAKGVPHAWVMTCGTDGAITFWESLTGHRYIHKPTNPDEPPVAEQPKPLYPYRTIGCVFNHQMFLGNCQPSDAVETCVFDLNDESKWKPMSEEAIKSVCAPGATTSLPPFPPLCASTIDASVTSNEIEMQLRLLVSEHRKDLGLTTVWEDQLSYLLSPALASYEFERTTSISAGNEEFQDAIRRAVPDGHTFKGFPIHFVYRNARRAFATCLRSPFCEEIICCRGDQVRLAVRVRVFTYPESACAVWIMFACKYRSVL

Variant | effect of a mutation on the interaction
R643W | with no effect

Variants of: B3
Details: with dab1_human DAB1, O75553

Variant | effect of a mutation on the interaction
MAVSVTPIRDTKWLTLEVCREFQRGTCSRPDTECKFAHPSKSCQAENGRVIACFDSLKGRCSRENCKYLHPPPHLKTQLEINGRNNLIQQKNMAMLAQQMQLANAMMPGAPLQPVPMFSVAPSLATNASAAAFNPYLGPVSPSLVPAEILPTAPMLVTGNPGVPVPAAAAAAAQKLMRTDRLEVCREYQRGNCNRGENDCRFAHPADSTMIDTNDNTVTVCMDYIKGRCSREKCKYFHPPAHLQAKIKAAQYQVNQAAAAQAAATAAAMTQSAVKSLKRPLEATFDLGIPQAVLPPLPKRPALEKTNGATAVFNTGIFQYQQALANMQLQQHTAFLPPVPMVHGATPATVSAATTSATSVPFAATATANQIPIISAEHLTSHKYVTQM [V45A] | with no effect
